Assay [1] concerns the target T1, GST-SIPA1l2-86-99 (rat, UniProt Q5JCS6 86-99).
T1 chain: PKKDCSKDLACKTL
The experiment in a line: pull-down.

For assay [2], the target named is T2, GST-ActI-SIPA1L2-1-624 (rat, UniProt Q5JCS6 1-624).
T2 sequence: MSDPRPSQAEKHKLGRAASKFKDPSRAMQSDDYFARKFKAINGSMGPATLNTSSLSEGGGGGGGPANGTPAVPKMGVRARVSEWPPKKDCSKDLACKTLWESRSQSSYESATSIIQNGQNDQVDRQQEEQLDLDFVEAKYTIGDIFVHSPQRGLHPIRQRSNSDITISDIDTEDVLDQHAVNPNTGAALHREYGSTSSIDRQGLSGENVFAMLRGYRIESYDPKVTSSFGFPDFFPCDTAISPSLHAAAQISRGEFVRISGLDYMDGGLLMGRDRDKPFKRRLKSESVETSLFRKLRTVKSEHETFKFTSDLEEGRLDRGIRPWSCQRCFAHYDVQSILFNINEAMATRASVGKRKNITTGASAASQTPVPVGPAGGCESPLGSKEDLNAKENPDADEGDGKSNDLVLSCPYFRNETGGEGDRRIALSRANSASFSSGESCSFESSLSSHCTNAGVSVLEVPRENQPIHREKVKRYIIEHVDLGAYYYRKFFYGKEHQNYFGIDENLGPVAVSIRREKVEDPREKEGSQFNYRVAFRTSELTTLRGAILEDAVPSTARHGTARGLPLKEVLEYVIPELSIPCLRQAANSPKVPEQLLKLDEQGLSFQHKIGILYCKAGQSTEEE
The experiment in a line: pull-down.

Turning to KLARHSKFGMKG [MBP-TrkB-454-465], the binding result in assay [1] was “binds”.

B1: MBP-TrkB-454-821 (domain or fragment)
chain: not shown
B1: in assay [2], the binding result was “binds”.

Values taken from doi:10.1101/556266 (bioRxiv, 2019).
